Data on one molecule can be found in patent publication US20210145935A1.

Assay [1] has as its target H1N1 pseudotyped lentiviral particles (H1 and N1 from swine H1N1 A/California/04/09) (influenza A virus H1N1 A/California/04/09). Briefly: cell-based or functional assay.
For assay [2], the target named is H3N2 pseudotyped lentiviral particles (H3 from A/Denmark/70/03, N2 from A/Texas/50/2012) (influenza A virus H3N2 A/Denmark/70/03; influenza A virus H3N2 A/Texas/50/2012). In words: cell-based or functional assay.

B1: human complement factor H purified from human plasma, P08603 19-1231 (protein)
chain: EDCNELPPRRNTEILTGSWSDQTYPEGTQAIYKCRPGYRSLGNVIMVCRKGEWVALNPLRKCQKRPCGHPGDTPFGTFTLTGGNVFEYGVKAVYTCNEGYQLLGEINYRECDTDGWTNDIPICEVVKCLPVTAPENGKIVSSAMEPDREYHFGQAVRFVCNSGYKIEGDEEMHCSDDGFWSKEKPKCVEISCKSPDVINGSPISQKIIYKENERFQYKCNMGYEYSERGDAVCTESGWRPLPSCEEKSCDNPYIPNGDYSPLRIKHRTGDEITYQCRNGFYPATRGNTAKCTSTGWIPAPRCTLKPCDYPDIKHGGLYHENMRRPYFPVAVGKYYSYYCDEHFETPSGSYWDHIHCTQDGWSPAVPCLRKCYFPYLENGYNQNYGRKFVQGKSIDVACHPGYALPKAQTTVTCMENGWSPTPRCIRVKTCSKSSIDIENGFISESQYTYALKEKAKYQCKLGYVTADGETSGSITCGKDGWSAQPTCIKSCDIPVFMNARTKNDFTWFKLNDTLDYECHDGYESNTGSTTGSIVCGYNGWSDLPICYERECELPKIDVHLVPDRKKDQYKVGEVLKFSCKPGFTIVGPNSVQCYHFGLSPDLPICKEQVQSCGPPPELLNGNVKEKTKEEYGHSEVVEYYCNPRFLMKGPNKIQCVDGEWTTLPVCIVEESTCGDIPELEHGWAQLSSPPYYYGDSVEFNCSESFTMIGHRSITCIHGVWTQLPQCVAIDKLKKCKSSNLIILEEHLKNKKEFDHNSNIRYRCRGKEGWIHTVCINGRWDPEVNCSMAQIQLCPPPPQIPNSHNMTTTLNYRDGEKVSVLCQENYLIQEGEEITCKDGRWQSIPLCVEKIPCSQPPQIEHGTINSSRSSQESYAHGTKLSYTCEGGFRISEENETTCYMGKWSSPPQCEGLPCKSPPEISHGVVAHMSDSYQYGEEVTYKCFEGFGIDGPAIAKCLGEKWSHPPSCIKTDCLSLPSFENAIPMGEKKDVYKAGEQVTYTCATYYKMDGASNVTCINSRWTGRPTCRDTSCVNPPTVQNAYIVSRQMSKYPSGERVRYQCRSPYEMFGDEEVMCLNGNWTEPPQCKDSTGKCGPPPPIDNGDITSFPLSVYAPASSVEYQCQNLYQLEGNKRITCRNGQWSEPPKCLHPCVISREIMENYNIALRWTAKQKLYSRTGESVEFVCKRGYRLSSRSHTLRTTCWDGKLEYPTCAKR
Take B1: the luciferase reporter activity of transduced MDCK cells, 40 µg/ml protein worked out at 25 % reduction in assay [1] and 50 % increase in assay [2].
